Laboratory results published in patent US20050153872A1, “Methods and compositions for the treatment of infection” (priority 2004, published 2005).

Assays:
[1] = tested on: Aspergillus niger SWA 1011 strain; assay: In vitro cell growth inhibition assay; details: Ph-CA 5 μg/ml; Ph-SA 5 μg/ml; amphotericin B 200 ng/ml; Fluconazole 3 μg/ml
ATCC 700802 VRE cells = assay: Electron micrographs of bactericidal effects of Ph-EF; type: cell-based, Enterococcus; details: Ph-EF 10 ug/ml 0.5 and 2 hr; Ph-SA 10 ug/ml 2 hr; vancomycin 20 ug/ml 2 hr
Method: Electron Microraphs of Bactericidal Effects of Ph-EF Against ATCC 700802 VRE Cells (1% Phosphotungstic Acid, 15.000×).
Bactericidal effects of ph-EF were tested and monitored by electron microscopy. FIG. 16 depicts electron micrographs of (a) untreated cells; (b) and (c) cells treated with Ph-EF (10 ug/ml) for 0.5 hr; (d) untreated cells for 2 hr; (e) cells treated by Ph-SA (10 ug/ml) for 2 hr; (f) cells treated with vancomycin (20 ug/ml) for 2 hr; (g) and (h) cells treated with Ph-EF (10 ug/ml) for 2 hrs.

Escherichia coli 02-1-65 [2] = assay: MIC against challenge strain (Table 3); type: cell-based
[3] = tested on: S. epidermidis BQIOC 26069; type: cell-based; details: all agents at 2 ug/ml
Method: All agents were at 2 ug/ml.

[4] = tested on: Staphylococcus aureus MRSA strain (80); assay: In vitro antibacterial activity (MIC), clinical isolates; type: cell-based; details: 80 MRSA clinical isolates
Summary of the method: (§1)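 Clinical isolates collected in Sichuan and Beijing in 2002, identified with the API system, were exposed to test compound to determine MIC50, MIC90 and MIC range. S. aureus ATCC25923, 29213 and BAA-42 served as control strains.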

[5] = tested on: Staphylococcus aureus MSSA strain (88); assay: as above; type: cell-based; details: 88 MSSA clinical isolates
Summary of the method: as §1

[6] = tested on: Staphylococcus epidermidis MRSE strain (25); assay: as above; type: cell-based; details: 25 MRSE clinical isolates
Summary of the method: as §1

Acenetobactor (20) = assay: as above; type: cell-based; details: 20 Acenetobactor clinical isolates
Summary of the method: as §1

Enterococcus (20) = assay: as above; type: cell-based; details: 20 Enterococcus clinical isolates
Summary of the method: as §1

[7] = tested on: Staphylococcus epidermidis MSSE strain (21); assay: as above; type: cell-based; details: 21 MSSE clinical isolates
Summary of the method: as §1

[8] = tested on: SMMC-7721 human hepatocellular carcinoma cells; assay: Toxicity assessment in mammalian cells; type: cell-based; details: about 200 micrograms per ml; 48 hours incubation
Method: (§2) To assess potential toxicity to mammalian cells, HL-7702 human liver cells and SMMC-7721 human hepatocellular carcinoma cells (Institute of Biochemistry & Cell Biology, Shanghai, Chinese Academy of Science) were grown in 1640 medium and treated with various fusion peptides. The concentration of antivirus and antibacterial peptides used for treating the cells was about 200 micrograms per ml. Equal amounts of stock solution (20 mM PBS, pH 7.4) was added to the control cells.

[9] = tested on: HL-7702 human liver cells; assay: Toxicity assessment in mammalian cells; type: cell-based; details: about 200 micrograms per ml; 48 hours incubation
Method: as §2

[10] = tested on: Staphylococcus aureus MRSA 02-18; assay: In vivo protection of infected mice; set-up: species or system Kungming mice; details: mice, i.p. infection 1.7 × 10^5 cfu/ml
Summary of the method: (§3)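 Kunming mice (18–22 g, both sexes) were infected intraperitoneally with a lethal dose of staphylococci, enterococci or E. coli; agents were diluted in sterile water to 10, 5 and 2.5 mg/L. Deaths were counted every 24 h over 7–14 days.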

[11] = tested on: Enterococcus faecalis ATCC 700802; assay: In vivo protection of infected mice; set-up: species or system Kungming mice; details: mice, i.p. infection 8.0 × 10^6 cfu/ml
Summary of the method: as §3

[12] = tested on: Staphylococcus aureus MRSA BAA-42; assay: In vivo protection of infected mice; set-up: species or system Kungming mice; details: mice, i.p. infection 5.5 × 10^5 cfu/ml
Summary of the method: as §3

[13] = tested on: Enterococcus faecalis ATCC 700802; assay: microbe, parasite or virus in culture; type: cell-based; details: Enterococcus faecalis, ATCC700802
[14] = tested on: Candida albicans ATCC 10231; assay: In vitro cell growth inhibition assay (OD595, filaments); details: Ph-CA 5 μg/ml; Ph-SA 5 μg/ml; ampicillin 50 μg/ml; amphotericin B 200 ng/ml; fluconazole 3 μg/ml
[15] = tested on: Staphylococcus aureus MRSA BAA-42; assay: microbe, parasite or virus in culture; type: cell-based; details: Staphylococcus aureus MRSA BAA-42
MRSA strain ATCC BAA-42 = assay: Electron micrographs of bactericidal effects; type: cell-based, S. aureus; details: Ph-SA 50 μg/ml 0.5 hrs; wild type colicin Ia 50 μg/ml 2 hrs; AgrDI 10 μg/ml 2 hrs
Excerpt: Electron Micrographs of Bactericidal Effects of Ph-SA1 Against ATCC BAA-42 MRSA Strain Cells (1% Phosphotungstic Acid. 25,000×)

[16] = tested on: Staphylococcus aureus ATCC 29213; assay: MIC against challenge strain (Table 3); type: cell-based
[17] = tested on: Staphylococcus aureus MRSA 02-18; assay: microbe, parasite or virus in culture; type: cell-based; details: Staphylococcus aureus MRSA 02-18
[18] = tested on: S. aureus strain ATCC BAA-42 MRSA; details: all agents 5 μg/ml
Escherichia coli 02-1-65 [19] = assay: In vivo protection of infected mice; set-up: species or system Kungming mice; details: i.p. infection 3.3 × 10^5 cfu/ml
Summary of the method: as §3

[20] = tested on: Staphylococcus aureus ATCC 29213; assay: In vivo protection of infected mice; set-up: species or system Kungming mice; details: i.p. infection 3.6 × 10^5 cfu/ml
Summary of the method: as §3

[21] = 1st Time, i.v. treatment after one hour
[22] = 2nd Time (value in parentheses), i.v. treatment

B1: Ph-SA1: Colicin Ia linked to the AgrDI pheromone of S. aureus (protein)
chain: SDPVRITNPGAESLGYDSDGHEIMAVDIYVNPPRVDVFHGTPPAWSSFGNKTIWGGNEWVDDSPTRSDIEKRDKEITAYKNTLSAQQKENENKRTEAGKRLSAAIAAREKDENTLKTLRAGNADAADITRQEFRLLQAELREYGFRTEIAGYDALRLHTESRMLFADADSLRISPREARSLIEQAEKRQKDAQNADKKAADMLAEYERRKGILDTRLSELEKNGGAALAVLDAQQARLLGQQTRNDRAISEARNKLSSVTESLNTARNALTRAEQQLTQQKNTPDGKTIVSPEKFPGRSSTNHSIVVSGDPRFAGTIKITTSAVIDNRANLNYLLSHSGLDYKRNILNDRNPVVTEDVEGDKKIYNAEVAEWDKLRQRLLDARNKITSAESAVNSARNNLSARTNEQKHANDALNALLKEKENIRNQLSGINQKIAEEKRKQDELKATKDAINFTTEFLKSVSEKYGAKAEQLAREMAGQAKGKKIRNVEEALKTYEKYRADINKKINAKDRAAIAAALESVKLSDISSNLNRFSRGLGYAGKFTSLADWITEFGKAVRTENWRPLFVKTETIIAGNAATALVALVFSILTGSALGIIGYGLLMAVTGALIDESLVEKANKFWGIYSTCDFIM
modifications: Colicin attached to Pheromone peptide encoding Staphylococcus aureus AgrDI
B1 was tested, and the “effect on growth of Aspergillus niger” value [1] was “no effect on the growth”, the “morphological alteration in VRE cells (electron micrographs)” value (ATCC 700802 VRE cells) was “no morphological alteration” and the MIC (Escherichia coli 02-1-65 [2]) was 1 µg/mL. For the same molecule, the “inhibition of cell growth” value [3] was “only partially inhibited”, the MIC50 [4] was 16> mg/l and the MIC90 [4] was 16 µg/mL. The “MIC Scope” value [4] was <0.0005˜64 mg/l, the MIC50 [5] was 0.5 µg/mL and the MIC90 [5] was 16 µg/mL. The MIC50 [6] was over 64 µg/mL, the MIC90 [6] was over 64 µg/mL and the MIC50 (Acenetobactor (20)) was 32 µg/mL. The MIC90 (Acenetobactor (20)) was over 64 µg/mL, the MIC50 (Enterococcus (20)) was over 64 µg/mL and the MIC90 (Enterococcus (20)) was over 64 µg/mL. For the same molecule, the MIC50 [7] was 0.25 µg/mL, the MIC90 [7] was 16 µg/mL and the “MIC Scope” value [7] was 0.125˜32 mg/l. The “cell morphology and cell growth (toxicity)” value [8] was “not toxic to the liver cells”, the “cell morphology and cell growth (toxicity)” value [9] was “not toxic to the liver cells” and the ED50 [10, 21] was 3.84 mg/kg. For the same molecule, the ED50 [10, 22] was “(4.24) mg/kg”, the ED50 [11, 21] was 4.23 mg/kg and the ED50 [11, 22] was “(3.70) mg/kg”. The ED50 [12, 21] was 4.32 mg/kg, the ED50 [12, 22] was “(4.23) mg/kg” and the MIC [13] was 4 µg/mL. For the same molecule, the “effect on growth of Candida albicans” value [14] was “no effect on the growth”, the MIC [15] was 0.5 µg/mL and the “bactericidal effect / effect on cell growth (electron micrographs)” value (MRSA strain ATCC BAA-42) was “killed BAA-42 MRSA cells”. The MIC [16] was 0.25 µg/mL, the MIC [17] was 0.5 µg/mL and the inhibition of growth [18] was “best inhibitory effects”. For the same molecule, the ED50 (Escherichia coli 02-1-65 [19]; [21]) was 3.14 mg/kg, the ED50 (Escherichia coli 02-1-65 [19]; [22]) was “(3.12) mg/kg” and the ED50 [20, 21] was 10.35 mg/kg. For the same molecule, the ED50 [20, 22] was “(8.87) mg/kg”.
